# B1: V370A: bx9 SEQ ID NO:1 mutant (protein)
# chain: MASSRTGAGAGGRVVVFPFPFQGHFNPVMRLARALHARGLAITVFHSGALDPADYPADYRFVPVTVEADPKLLASEDIAAIVTTLNASCDAPFRARLSALLAAEGRDSVRCVFTDVSWNAVLTASSDLGVPALGMMTASAASLRDYMAYRTLIDKGYLPVKEERKEDPVPELPPYLVKDLLRVDTSDLEEFAELLARTVTAARRASGLIFNTFPLIETDTLAEIHKALSVPVFAVAPLNKLVPTATASLHGVVQADRGCLQWLDTQQPGSVLYVSFGSMAAMDPHEFVELAWGLADSKRPFVWVVRPNLIRGFESGALPDGVEDEVRGRGIVVAWAPQEEVLAHPAVGGFLTHNGWNSTVEAISEGVPMACCPRHGDQFGNMRYVCDVWKVGTELVGEQLERGQVKAAIDRLFGTKEGEEIKERMKEFKIAAAKGIGIGVDVDETASPRTDLTDLVDLIKSF
# modifications: Zea mays
# B2: G376C: bx9 SEQ ID NO:1 mutant (protein)
# chain: MASSRTGAGAGGRVVVFPFPFQGHFNPVMRLARALHARGLAITVFHSGALDPADYPADYRFVPVTVEADPKLLASEDIAAIVTTLNASCDAPFRARLSALLAAEGRDSVRCVFTDVSWNAVLTASSDLGVPALGMMTASAASLRDYMAYRTLIDKGYLPVKEERKEDPVPELPPYLVKDLLRVDTSDLEEFAELLARTVTAARRASGLIFNTFPLIETDTLAEIHKALSVPVFAVAPLNKLVPTATASLHGVVQADRGCLQWLDTQQPGSVLYVSFGSMAAMDPHEFVELAWGLADSKRPFVWVVRPNLIRGFESGALPDGVEDEVRGRGIVVAWAPQEEVLAHPAVGGFLTHNGWNSTVEAISEGVPMVCCPRHCDQFGNMRYVCDVWKVGTELVGEQLERGQVKAAIDRLFGTKEGEEIKERMKEFKIAAAKGIGIGVDVDETASPRTDLTDLVDLIKSF
# modifications: Zea mays
# B3: Q22H: bx9 SEQ ID NO:1 mutant (protein)
# chain: MASSRTGAGAGGRVVVFPFPFHGHFNPVMRLARALHARGLAITVFHSGALDPADYPADYRFVPVTVEADPKLLASEDIAAIVTTLNASCDAPFRARLSALLAAEGRDSVRCVFTDVSWNAVLTASSDLGVPALGMMTASAASLRDYMAYRTLIDKGYLPVKEERKEDPVPELPPYLVKDLLRVDTSDLEEFAELLARTVTAARRASGLIFNTFPLIETDTLAEIHKALSVPVFAVAPLNKLVPTATASLHGVVQADRGCLQWLDTQQPGSVLYVSFGSMAAMDPHEFVELAWGLADSKRPFVWVVRPNLIRGFESGALPDGVEDEVRGRGIVVAWAPQEEVLAHPAVGGFLTHNGWNSTVEAISEGVPMVCCPRHGDQFGNMRYVCDVWKVGTELVGEQLERGQVKAAIDRLFGTKEGEEIKERMKEFKIAAAKGIGIGVDVDETASPRTDLTDLVDLIKSF
# modifications: Zea mays
# B4: V370I: bx9 SEQ ID NO:1 mutant (protein)
# chain: MASSRTGAGAGGRVVVFPFPFQGHFNPVMRLARALHARGLAITVFHSGALDPADYPADYRFVPVTVEADPKLLASEDIAAIVTTLNASCDAPFRARLSALLAAEGRDSVRCVFTDVSWNAVLTASSDLGVPALGMMTASAASLRDYMAYRTLIDKGYLPVKEERKEDPVPELPPYLVKDLLRVDTSDLEEFAELLARTVTAARRASGLIFNTFPLIETDTLAEIHKALSVPVFAVAPLNKLVPTATASLHGVVQADRGCLQWLDTQQPGSVLYVSFGSMAAMDPHEFVELAWGLADSKRPFVWVVRPNLIRGFESGALPDGVEDEVRGRGIVVAWAPQEEVLAHPAVGGFLTHNGWNSTVEAISEGVPMICCPRHGDQFGNMRYVCDVWKVGTELVGEQLERGQVKAAIDRLFGTKEGEEIKERMKEFKIAAAKGIGIGVDVDETASPRTDLTDLVDLIKSF
# modifications: Zea mays
# B5: Q22M: bx9 SEQ ID NO:1 mutant (protein)
# chain: MASSRTGAGAGGRVVVFPFPFMGHFNPVMRLARALHARGLAITVFHSGALDPADYPADYRFVPVTVEADPKLLASEDIAAIVTTLNASCDAPFRARLSALLAAEGRDSVRCVFTDVSWNAVLTASSDLGVPALGMMTASAASLRDYMAYRTLIDKGYLPVKEERKEDPVPELPPYLVKDLLRVDTSDLEEFAELLARTVTAARRASGLIFNTFPLIETDTLAEIHKALSVPVFAVAPLNKLVPTATASLHGVVQADRGCLQWLDTQQPGSVLYVSFGSMAAMDPHEFVELAWGLADSKRPFVWVVRPNLIRGFESGALPDGVEDEVRGRGIVVAWAPQEEVLAHPAVGGFLTHNGWNSTVEAISEGVPMVCCPRHGDQFGNMRYVCDVWKVGTELVGEQLERGQVKAAIDRLFGTKEGEEIKERMKEFKIAAAKGIGIGVDVDETASPRTDLTDLVDLIKSF
# modifications: Zea mays
# B6: C372I: bx9 SEQ ID NO:1 mutant (protein)
# chain: MASSRTGAGAGGRVVVFPFPFQGHFNPVMRLARALHARGLAITVFHSGALDPADYPADYRFVPVTVEADPKLLASEDIAAIVTTLNASCDAPFRARLSALLAAEGRDSVRCVFTDVSWNAVLTASSDLGVPALGMMTASAASLRDYMAYRTLIDKGYLPVKEERKEDPVPELPPYLVKDLLRVDTSDLEEFAELLARTVTAARRASGLIFNTFPLIETDTLAEIHKALSVPVFAVAPLNKLVPTATASLHGVVQADRGCLQWLDTQQPGSVLYVSFGSMAAMDPHEFVELAWGLADSKRPFVWVVRPNLIRGFESGALPDGVEDEVRGRGIVVAWAPQEEVLAHPAVGGFLTHNGWNSTVEAISEGVPMVCIPRHGDQFGNMRYVCDVWKVGTELVGEQLERGQVKAAIDRLFGTKEGEEIKERMKEFKIAAAKGIGIGVDVDETASPRTDLTDLVDLIKSF
# modifications: Zea mays
# B7: F21Y: bx9 SEQ ID NO:1 mutant (protein)
# chain: MASSRTGAGAGGRVVVFPFPYQGHFNPVMRLARALHARGLAITVFHSGALDPADYPADYRFVPVTVEADPKLLASEDIAAIVTTLNASCDAPFRARLSALLAAEGRDSVRCVFTDVSWNAVLTASSDLGVPALGMMTASAASLRDYMAYRTLIDKGYLPVKEERKEDPVPELPPYLVKDLLRVDTSDLEEFAELLARTVTAARRASGLIFNTFPLIETDTLAEIHKALSVPVFAVAPLNKLVPTATASLHGVVQADRGCLQWLDTQQPGSVLYVSFGSMAAMDPHEFVELAWGLADSKRPFVWVVRPNLIRGFESGALPDGVEDEVRGRGIVVAWAPQEEVLAHPAVGGFLTHNGWNSTVEAISEGVPMVCCPRHGDQFGNMRYVCDVWKVGTELVGEQLERGQVKAAIDRLFGTKEGEEIKERMKEFKIAAAKGIGIGVDVDETASPRTDLTDLVDLIKSF
# modifications: Zea mays
# B8: Q22P: bx9 SEQ ID NO:1 mutant (protein)
# chain: MASSRTGAGAGGRVVVFPFPFPGHFNPVMRLARALHARGLAITVFHSGALDPADYPADYRFVPVTVEADPKLLASEDIAAIVTTLNASCDAPFRARLSALLAAEGRDSVRCVFTDVSWNAVLTASSDLGVPALGMMTASAASLRDYMAYRTLIDKGYLPVKEERKEDPVPELPPYLVKDLLRVDTSDLEEFAELLARTVTAARRASGLIFNTFPLIETDTLAEIHKALSVPVFAVAPLNKLVPTATASLHGVVQADRGCLQWLDTQQPGSVLYVSFGSMAAMDPHEFVELAWGLADSKRPFVWVVRPNLIRGFESGALPDGVEDEVRGRGIVVAWAPQEEVLAHPAVGGFLTHNGWNSTVEAISEGVPMVCCPRHGDQFGNMRYVCDVWKVGTELVGEQLERGQVKAAIDRLFGTKEGEEIKERMKEFKIAAAKGIGIGVDVDETASPRTDLTDLVDLIKSF
# modifications: Zea mays
# B9: E76M: bx9 SEQ ID NO:1 mutant (protein)
# chain: MASSRTGAGAGGRVVVFPFPFQGHFNPVMRLARALHARGLAITVFHSGALDPADYPADYRFVPVTVEADPKLLASMDIAAIVTTLNASCDAPFRARLSALLAAEGRDSVRCVFTDVSWNAVLTASSDLGVPALGMMTASAASLRDYMAYRTLIDKGYLPVKEERKEDPVPELPPYLVKDLLRVDTSDLEEFAELLARTVTAARRASGLIFNTFPLIETDTLAEIHKALSVPVFAVAPLNKLVPTATASLHGVVQADRGCLQWLDTQQPGSVLYVSFGSMAAMDPHEFVELAWGLADSKRPFVWVVRPNLIRGFESGALPDGVEDEVRGRGIVVAWAPQEEVLAHPAVGGFLTHNGWNSTVEAISEGVPMVCCPRHGDQFGNMRYVCDVWKVGTELVGEQLERGQVKAAIDRLFGTKEGEEIKERMKEFKIAAAKGIGIGVDVDETASPRTDLTDLVDLIKSF
# modifications: Zea mays
# Assay: UDP luminescence plate assay of E. coli extracts, saturation mutants of SEQ ID NO: 1, herbicide V
# Assay type: biochemical, Zea mays
# Settings: improvement factor relative to w/t bx9 = 1.0, rounded to nearest 0.5; extract activity basis; compound V
# Experimental: Competent BL21 (DE3) cells are transformed as in the foregoing examples and, following seed culturing, grown and autoinduced in plates in a 0.5-1 ml volume of autoinduction medium containing 50 ug/ml kanamycin. Plates are incubated at 37° C. and shaken at 900 rpm. Growth is monitored by taking 20 ul aliquots, diluting 10 fold into flat-bottomed 96 well microtiter plates and reading OD600n at t=0, 1, 2, 2½ and 3 hours if necessary. At a (corrected) OD600 nm˜0.2, plates are transferred to 20° C. and shaken overnight at 900 rpm in a Jencons VWR plate incubator. After ˜18-20 h the final OD600 readings are recorded and the plates centrifuged at 4600 rpm (bench top centrifuge) for 10 min at 4° C. The supernatant is discarded and the pellets then washed with 0.25 ml PBS by repeat centrifugation and removal of supernatant before freezing cell pellets at −80° C. To prepare extracts, plates are allowed to thaw for 30 min and then pellets are resuspended in 0.25 ml of a suitable lysis buffer (for example—50 mM Tris HCL buffer at pH 8.0, 5% glycerol containing 50 mM NaCl and lysonase) mixed, incubated at room temperature for a sufficient time for lysis to be near complete and then centrifuged to remove cell debris and 100 ul of supernatant extract removed to a 96 well V-shaped well plate and stored on ice prior to assay.
# Optionally plate assays are stopped with brief heating to 95 C before returning to ice and addition of UDP-Glo detection reagent followed by incubation at lab temperature. […] In addition a UDP standard curve is run alongside each set of plate tests.
# Making use of the ELISA assay it is then possible to calculate a specific activity (e.g. in Relative Luminescence Units (RLU)/min/ug bx protein) based upon the amount of each mutant bx9 polypeptide expressed in each well. […] The specific activity of the various test mutant extracts on the same plate are then expressed as a fraction of the specific activity of the w/t bx9 and thus the ‘improvement factor’ versus the w/t expressed as a decimal where, for example, ‘0.5’ means half the specific activity of the wild type and 2.0 means twice the specific activity of the wild type. However, as will be readily apparent to the skilled man, particularly in cases where the UDP assay signal was low (with poor signal to noise versus the background) and/or the ELISA measurement of bx protein also low such a method is prone to generate spurious high specific activity numbers and uncertain numbers.
Molecule,Preferred amino acid substitutions and (IF) based on RLU/min/ul,Most Preferred amino acid substitutions and (IF) based on RLU/min/ul
B1,"A,I(1.5)",–
B2,"C,M(1.0)",–
B3,"H,P,M(1.0)",–
B4,"A,I(1.5)",–
B5,"H,P,M(1.0)",–
B6,I(1.0),–
B7,–,Y(2.0)
B8,"H,P,M(1.0)",–
B9,M(1.0),–

# From US20200270588A1, “GLUCOSYL TRANSFERASE POLYPEPTIDES AND METHODS OF USE” (Syngenta Participations AG, priority 2017, published 2020)
